Biological target: T1, human Fibrin (human fibrinogen clotted on the plate with thrombin and CaCl2) (human, UniProt P02671 36-629; P02675 45-491; P02679 27-437)
T1 construct: Made in the ELISA wells from the human fibrinogen by thrombin and CaCl2, 1 hour at 37 C, then dried
T1 sequence (looked up) 1: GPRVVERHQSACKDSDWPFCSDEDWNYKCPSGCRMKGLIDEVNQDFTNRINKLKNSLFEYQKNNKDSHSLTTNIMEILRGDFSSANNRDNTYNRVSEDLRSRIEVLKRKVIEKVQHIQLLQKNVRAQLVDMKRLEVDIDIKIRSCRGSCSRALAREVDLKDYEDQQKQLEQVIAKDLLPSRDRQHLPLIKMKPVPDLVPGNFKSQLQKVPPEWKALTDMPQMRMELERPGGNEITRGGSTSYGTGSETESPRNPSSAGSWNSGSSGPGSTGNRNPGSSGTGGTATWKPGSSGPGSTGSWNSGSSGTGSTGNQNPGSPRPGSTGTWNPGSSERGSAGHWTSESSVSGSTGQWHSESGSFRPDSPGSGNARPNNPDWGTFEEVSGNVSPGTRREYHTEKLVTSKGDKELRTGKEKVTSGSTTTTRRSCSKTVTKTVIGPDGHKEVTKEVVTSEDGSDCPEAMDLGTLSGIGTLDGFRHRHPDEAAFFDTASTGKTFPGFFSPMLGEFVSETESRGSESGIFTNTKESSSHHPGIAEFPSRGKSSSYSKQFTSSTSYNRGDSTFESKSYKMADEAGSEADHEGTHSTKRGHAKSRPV
T1 sequence (looked up) 2: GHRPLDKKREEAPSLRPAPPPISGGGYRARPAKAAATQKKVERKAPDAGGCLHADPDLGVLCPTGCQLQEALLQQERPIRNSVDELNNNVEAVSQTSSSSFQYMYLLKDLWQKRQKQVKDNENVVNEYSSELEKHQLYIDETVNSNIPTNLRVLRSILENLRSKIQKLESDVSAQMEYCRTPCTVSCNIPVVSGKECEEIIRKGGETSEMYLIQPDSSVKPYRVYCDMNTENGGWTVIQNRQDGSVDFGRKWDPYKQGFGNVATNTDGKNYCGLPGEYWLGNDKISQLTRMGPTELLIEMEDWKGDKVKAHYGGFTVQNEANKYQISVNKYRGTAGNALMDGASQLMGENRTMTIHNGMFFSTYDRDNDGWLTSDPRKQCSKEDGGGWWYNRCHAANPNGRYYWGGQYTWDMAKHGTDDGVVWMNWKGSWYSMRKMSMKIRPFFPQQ
T1 sequence (looked up) 3: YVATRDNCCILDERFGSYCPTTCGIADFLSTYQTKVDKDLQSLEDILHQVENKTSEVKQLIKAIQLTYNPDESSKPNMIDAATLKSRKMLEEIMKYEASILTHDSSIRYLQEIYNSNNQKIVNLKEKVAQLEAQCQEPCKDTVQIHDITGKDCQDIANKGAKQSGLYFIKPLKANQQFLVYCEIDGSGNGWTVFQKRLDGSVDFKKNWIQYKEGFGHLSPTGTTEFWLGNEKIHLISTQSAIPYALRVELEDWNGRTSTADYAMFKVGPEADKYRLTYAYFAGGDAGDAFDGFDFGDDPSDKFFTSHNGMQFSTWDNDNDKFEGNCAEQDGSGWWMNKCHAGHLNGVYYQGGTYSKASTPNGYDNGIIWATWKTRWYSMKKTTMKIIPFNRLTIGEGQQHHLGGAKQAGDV
Assay: ELISA on plate-coated human fibrin (fibrinogen clotted in the well with thrombin/CaCl2), antibody titrated, A450
Protocol: The humanized antibodies affinity for fibrinogen, fibrin and P2 peptide were assessed by Enzyme-linked immunosorbent assays (ELISA)s (FIGS. 7-16). ELISAs for fibrinogen binding were performed using plasminogen-depleted human Fibrinogen (EMD/Calbiochem). […] IgG1-depleted Fibrinogen (FGN) in 20 mM HEPES/Saline buffer was added to each well of half of a 96-well Nunc Maxisorp™ ELISA plate. The ELISAs for fibrin binding were prepared by adding 50 mL of 20 mM HEPES/Saline buffer containing 14 mM CaCl₂, and 2 units thrombin to each well of the second half of the Nunc Maxisorp™ ELISA plate. 50 mL of 20 mg fibrinogen in 20 mM HEPES/Saline buffer were then added to a total volume of 100 mL. Plates were placed in a 37° C. incubator for 1 hour to allow fibrinogen to clot into fibrin and subsequently placed overnight into a plate dryer at 37° C. overnight. The ELISAs for P2 peptide were prepared by addition of […] of 30 mM P2 peptide in 20 mM HEPES/Saline buffer to each well of a 96-well Nunc Maxisorp™ ELISA plate. Plates were transferred to the plate dryer and dried overnight at 37° C. All ELISAs were preformed using Nunc MaxiSorp 96-well ELISA plates. Blocking was performed using 100 mL 5% BSA in DPBS are incubated at RT for 1 hour. Plates were washed 5× in DPBS containing 0.05% Tween-20 (EL406 was used for the addition of wash buffer only). […]

EC50 (read off the curve): ~300 nM
B1: humanized VH4/Vκ1 antibody (antibody, IgG1, V domains shown)
VH: QVQLVQSGAEVKKPGSSVKVSCKASGYTFTSYWIHWVRQAPGQGLEWIGLIDPSDSYTNYNQKFRGRVTITVDTSTSTAYMELSSLRSEDTAVYYCASSDPTGCWGQGTTVTVSS
VL: DIVMTQAAFSNPITPGTPASISCRSSKSLLHSSGITYLSWYLQKPGQSPQLLIYQMSNLASGVPDRFSSSGSGTDFTLRISRVEAEDVGVYYCAQNLELPLTFGQGTKLEIK
notes: Expressed as IgG1; also called VH4/VK1; VH4Vk1

From patent US20240279357A1 (THERINI BIO, published 2024)
